The experiment has as its target T1, pro-caspase-8 (Homo sapiens, UniProt P62942+Q14790).
T1 construct: in vitro translated, ^35S-labeled Fkp3-Casp8(206); made in house; host or cells: cell-free in vitro transcription/translation, TNT Reticulocyte Lysate System (Promega)
In words: Cell-free processing of pro-caspase-8 (in vitro translated, 35S-labeled, SDS-PAGE autoradiography). The format is biochemical. Particulars: AP1510 100 nM; FK506 100 nM; Z-DEVD 10 μM. As to the method: In vitro transcription and translation of the indicated constructs with ^35S-labeled methionine were carried out with the TNT Reticulocyte Lysate System (Promega; Madison Wis.). The reaction mixture contained 1 μl of the in vitro translation product and the indicated drugs dissolved in 3 μl of CED3 reaction buffer (Xue et al., Genes Devel. 10:1073-1083 (1996), which is incorporated herein by reference). Final drug concentrations of 100 nM of AP1510 or FK506 and 10 μM of Z-Asp-Glu-Val-Asp(SEQ ID NO:1)(Z-DEVD; Enzyme System Products; Calif.) were used. The reaction mixture was incubated in 30° C. for 4 hr, then the reaction stopped by the addition of SDS sample buffer. Reaction products were visualized by SDS-PAGE and autoradiography.

T1 sequence (P62942+Q14790 fused): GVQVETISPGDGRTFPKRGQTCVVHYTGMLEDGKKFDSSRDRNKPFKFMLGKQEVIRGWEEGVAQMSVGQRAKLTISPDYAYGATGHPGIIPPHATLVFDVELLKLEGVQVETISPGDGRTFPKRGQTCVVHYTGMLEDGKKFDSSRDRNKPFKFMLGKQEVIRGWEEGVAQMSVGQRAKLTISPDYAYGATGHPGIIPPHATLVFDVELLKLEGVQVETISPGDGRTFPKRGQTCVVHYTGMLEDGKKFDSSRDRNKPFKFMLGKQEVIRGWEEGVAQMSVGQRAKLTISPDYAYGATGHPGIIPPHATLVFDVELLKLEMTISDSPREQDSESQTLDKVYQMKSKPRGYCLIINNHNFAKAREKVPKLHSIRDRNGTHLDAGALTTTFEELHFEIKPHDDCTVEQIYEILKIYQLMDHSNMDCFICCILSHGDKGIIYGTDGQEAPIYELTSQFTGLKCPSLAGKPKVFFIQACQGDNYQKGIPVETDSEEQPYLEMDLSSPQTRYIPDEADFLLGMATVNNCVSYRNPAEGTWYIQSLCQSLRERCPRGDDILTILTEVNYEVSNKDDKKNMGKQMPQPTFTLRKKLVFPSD

Take “Z-Asp-Glu-Val-Asp (ZDEVD; N-terminal benzyloxycarbonyl (Z); enzyme used in cell-free processing of Pro-Caspase-8) [z-DEVD]”: the “effect on AP1510-initiated cell-free processing of Fkp3-Casp8(206)” value is listed as “inhibited”.

(Values after patent US6916917B1, “Chimeric pro-caspases and methods of using same” (California Institute of Technology, priority 1998, dated 2005).)
